# Article PMC10397247
# T1: P3A-bA
# T1 chain: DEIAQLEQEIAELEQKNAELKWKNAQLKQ
# T2: P7A-bA
# T2 chain: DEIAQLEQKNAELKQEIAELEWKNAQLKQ
# T3: P6A-bA
# T3 chain: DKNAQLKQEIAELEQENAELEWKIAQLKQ
# T4: P4A-bA
# T4 chain: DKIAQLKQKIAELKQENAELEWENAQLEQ
# T5: P5A-bA
# T5 chain: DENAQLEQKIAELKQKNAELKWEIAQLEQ
# T6: P9A-bA
# T6 chain: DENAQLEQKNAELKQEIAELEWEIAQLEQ
# T7: P8A-bA
# T7 chain: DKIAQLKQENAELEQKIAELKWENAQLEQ
# T8: 4H3907-bA
# T8 chain: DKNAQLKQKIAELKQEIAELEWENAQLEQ
# T9: 4H3601-bA
# T9 chain: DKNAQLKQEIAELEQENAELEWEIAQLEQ
# T10: 4H4038-bA
# T10 chain: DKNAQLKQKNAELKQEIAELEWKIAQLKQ
# T11: 4H3493-AA
# T11 chain: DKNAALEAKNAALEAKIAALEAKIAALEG
# T12: 4H688-AA
# T12 chain: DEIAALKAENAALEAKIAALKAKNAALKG
# T13: 4H376-AA
# T13 chain: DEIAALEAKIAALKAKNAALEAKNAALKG
# T14: 4H2592-AA
# T14 chain: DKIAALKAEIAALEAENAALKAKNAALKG
# T15: 4H2504-AA
# T15 chain: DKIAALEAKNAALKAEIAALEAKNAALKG
# T16: 4H406-AA
# T16 chain: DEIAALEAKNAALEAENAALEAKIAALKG
# T17: 4H2774-AA
# T17 chain: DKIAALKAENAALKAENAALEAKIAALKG
# T18: 4H3340-AA
# T18 chain: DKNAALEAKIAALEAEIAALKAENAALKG
# T19: 4H2611-AA
# T19 chain: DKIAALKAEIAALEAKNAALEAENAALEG
# T20: 4H963-AA
# T20 chain: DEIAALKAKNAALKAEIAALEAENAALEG
# T21: 4H3001-AA
# T21 chain: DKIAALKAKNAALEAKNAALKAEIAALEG
# T22: 4H347-AA
# T22 chain: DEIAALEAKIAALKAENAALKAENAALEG
# T23: 4H3381-AA
# T23 chain: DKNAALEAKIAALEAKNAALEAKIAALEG
# Experiments:
# P3A-bA = target: T1, P3A-bA; test: two-hybrid library CCNG1;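 further: natural log of median RNA to DNA barcode read ratio; higher means stronger binding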
# P7A-bA = target: T2, P7A-bA; test: two-hybrid library CCNG1;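 further: natural log of median RNA to DNA barcode read ratio; higher means stronger binding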
# P6A-bA = target: T3, P6A-bA; test: two-hybrid library CCNG1;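 further: natural log of median RNA to DNA barcode read ratio; higher means stronger binding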
# P4A-bA = target: T4, P4A-bA; test: two-hybrid library CCNG1;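 further: natural log of median RNA to DNA barcode read ratio; higher means stronger binding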
# P5A-bA = target: T5, P5A-bA; test: two-hybrid library CCNG1
# P9A-bA = target: T6, P9A-bA; test: two-hybrid library CCNG1
# P8A-bA = target: T7, P8A-bA; test: two-hybrid library CCNG1
# 4H3907-bA = target: T8, 4H3907-bA; test: two-hybrid library CCNG1
# 4H3601-bA = target: T9, 4H3601-bA; test: two-hybrid library CCNG1
# 4H4038-bA = target: T10, 4H4038-bA; test: two-hybrid library CCNG1
# 4H3493-AA = target: T11, 4H3493-AA; test: two-hybrid library CCmax; conditions: mean of both orientations
# 4H688-AA = target: T12, 4H688-AA; test: two-hybrid library CCmax; conditions: mean of both orientations
# 4H376-AA = target: T13, 4H376-AA; test: two-hybrid library CCmax; conditions: mean of both orientations
# 4H2592-AA = target: T14, 4H2592-AA; test: two-hybrid library CCmax
# 4H2504-AA = target: T15, 4H2504-AA; test: two-hybrid library CCmax
# 4H406-AA = target: T16, 4H406-AA; test: two-hybrid library CCmax; conditions: mean of both orientations
# 4H2774-AA = target: T17, 4H2774-AA; test: two-hybrid library CCmax; conditions: mean of both orientations
# 4H3340-AA = target: T18, 4H3340-AA; test: two-hybrid library CCmax
# 4H2611-AA = target: T19, 4H2611-AA; test: two-hybrid library CCmax; conditions: mean of both orientations
# 4H963-AA = target: T20, 4H963-AA; test: two-hybrid library CCmax; conditions: mean of both orientations
# 4H3001-AA = target: T21, 4H3001-AA; test: two-hybrid library CCmax; conditions: mean of both orientations
# 4H347-AA = target: T22, 4H347-AA; test: two-hybrid library CCmax; conditions: mean of both orientations
# 4H3381-AA = target: T23, 4H3381-AA; test: two-hybrid library CCmax; conditions: mean of both orientations
binder,measurement,setting,value
DEIAQLEQEIAELEQKNAELKWKNAQLKQ [P3A-bA],interaction score,P3A-bA,-1.07
same,interaction score,P7A-bA,-1.05
same,interaction score,P6A-bA,1.19
same,interaction score,P4A-bA,2.18
same,interaction score,P5A-bA,-0.684
same,interaction score,P9A-bA,0.237
same,interaction score,P8A-bA,0.146
DEIAQLEQENAELEQENAELEWEIAQLEQ [P1A-bA],interaction score,P3A-bA,-1.12
same,interaction score,P7A-bA,-0.804
same,interaction score,P6A-bA,-1.21
same,interaction score,P4A-bA,-1.08
same,interaction score,P5A-bA,-1.1
same,interaction score,P9A-bA,-1.21
same,interaction score,P8A-bA,-0.805
DKNAQLKQEIAELEQENAELEWEIAQLEQ [4H3601-bA],interaction score,4H3907-bA,-1.15
same,interaction score,4H3601-bA,-0.859
same,interaction score,4H4038-bA,-1.28
DKIAALEAKNAALKAEIAALEAKNAALKG [4H2504-AA],interaction score,4H3493-AA,-1.14
same,interaction score,4H688-AA,0.978
same,interaction score,4H376-AA,-1.78
same,interaction score,4H2592-AA,-1.07
same,interaction score,4H2504-AA,-0.729
same,interaction score,4H406-AA,0.644
same,interaction score,4H2774-AA,-1.42
same,interaction score,4H3340-AA,-1.51
same,interaction score,4H2611-AA,-2.59
same,interaction score,4H963-AA,-0.737
same,interaction score,4H3001-AA,-1.38
same,interaction score,4H347-AA,-1.77
same,interaction score,4H3381-AA,-0.947
